Data from patent US20210404962A1.

How the values were obtained:
[1] = target: GFP1-10 (large fragment of GFP) (Aequorea victoria (Water jellyfish) (Mesonema victoria)) [GFP: P42212]; experiment: fluorescence reconstitution, pseudo-first order, one phase association fit; GFP11 concentration not stated
[2] = target: GFP1-10 (large fragment of GFP) (Aequorea victoria (Water jellyfish) (Mesonema victoria)) [GFP: P42212]; experiment: fluorescence reconstitution kinetics, calculated from kobs at varied GFP11 concentrations
[3] = target: GFP1-10 (large fragment of GFP) (Aequorea victoria (Water jellyfish) (Mesonema victoria)) [GFP: P42212]; experiment: fluorescence increase over time with varied GFP11 peptide and purified GFP1-10 at 3 mM, one site binding model
[4] = target: GFP1-10 (large fragment of GFP) (Aequorea victoria (Water jellyfish) (Mesonema victoria)) [GFP: P42212]; experiment: fluorescence reconstitution, pseudo-first order, one phase association fit
[5] = target: GFP1-10 (large fragment of GFP) (Aequorea victoria (Water jellyfish) (Mesonema victoria)) [GFP: P42212]; experiment: stopped-flow fluorescence reconstitution, pseudo-first order, one phase association fit; 50 nM GFP11, excess GFP1-10

Substance “GFP11 peptide (chemically synthesized small fragment of split GFP; variant not stated)” has a kobs [1] of 0.007 s⁻¹, a kon [2] of 760000 M⁻¹ s⁻¹ and a Kd [3] of 481 µM. For the same substance, the half time [4] was 95 s and the kobs [5] was 0.003 s⁻¹.
